{"source": "patent US8080531B2", "about": "“Methods for modulating checkpoint activation through TopBP1” (California Institute of Technology, priority 2006, dated 2011)", "molecules": {"B1": {"name": "W1145R mutant: W1145R mutant of EGFP-NLS-TopBP1 (978-1286), analogous to the W1138R mutant of XtopBP1 (protein)", "chain": "KKKRKVAQECKHLPESLYPHTYNPKMSLDISAVQDGRLCNSRLLSAVSSTKDDEPDPLILEENDVDNMATNNKESAPSNGSGKNDSKGVLTQTLEMRENFQKQLQEIMSATSIVKPQGQRTSLSRSGCNSASSTPDSTRSARSGRSRVLEALRQSRQTVPDVNTEPSQNEQIIRDDPTAREERARLASNLQWPSCPTQYSELQVDIQNLEDSPFQKPLHDSEIAKQAVCDPGNIRVTEAPKHPISEELETPIKDSHLIPTPQAPSIAFPLANPPVAPHPREKIITIEETHEELKKQYIFQLSSLNPQERIDYCHL", "modifications": "left off: large carriers", "notes": "W1145R mutant of EGFP-NLS-TopBP1 (978-1286), analogous to the W1138R mutant of XtopBP1"}, "B2": {"name": "W1138R mutant of GST-XtopBP1 (972-1279): point mutant of the fragment in which the tryptophan in the WDDP motif was changed to arginine (protein)", "chain": "EQQKRVPEALYPHTYNPKMSLDISAVQDGSYTASKFSADTSLQQDENSELQLQQNNKFGETSDDQVKKAAGDGNPQNPSKDVKGALTQTLEMRENFQRQLQEFMSATSVVKPRGSVGRAGFDNSPCTPEGARSTRNGRSRVLEALRQSRQAMTDLNTEPSQNEQIIRDDPTAREERAKLVSNLQWPDSPSQYSEQLQHNMNDAGGNYTPAKESLTDSEIAELEACEFEPKSAMRTPVIENNLQSPTKPDHLTPTPQAPSIAFPLANPPVAPQPREKPVQPFSKEETLKERRFQLSSLDPQERIDYSQL", "modifications": "left off: a dimerising Fc or GST; small tags and cut ends", "notes": "point mutant of the fragment in which the tryptophan in the WDDP motif was changed to arginine"}}, "key": {"Xatr-Xatrip [1]": {"biological_target": "Xatr-Xatrip (Xenopus laevis, UniProt Q9DE14)", "sequence (Q9DE14 whole entry, the tested form may be a part)": "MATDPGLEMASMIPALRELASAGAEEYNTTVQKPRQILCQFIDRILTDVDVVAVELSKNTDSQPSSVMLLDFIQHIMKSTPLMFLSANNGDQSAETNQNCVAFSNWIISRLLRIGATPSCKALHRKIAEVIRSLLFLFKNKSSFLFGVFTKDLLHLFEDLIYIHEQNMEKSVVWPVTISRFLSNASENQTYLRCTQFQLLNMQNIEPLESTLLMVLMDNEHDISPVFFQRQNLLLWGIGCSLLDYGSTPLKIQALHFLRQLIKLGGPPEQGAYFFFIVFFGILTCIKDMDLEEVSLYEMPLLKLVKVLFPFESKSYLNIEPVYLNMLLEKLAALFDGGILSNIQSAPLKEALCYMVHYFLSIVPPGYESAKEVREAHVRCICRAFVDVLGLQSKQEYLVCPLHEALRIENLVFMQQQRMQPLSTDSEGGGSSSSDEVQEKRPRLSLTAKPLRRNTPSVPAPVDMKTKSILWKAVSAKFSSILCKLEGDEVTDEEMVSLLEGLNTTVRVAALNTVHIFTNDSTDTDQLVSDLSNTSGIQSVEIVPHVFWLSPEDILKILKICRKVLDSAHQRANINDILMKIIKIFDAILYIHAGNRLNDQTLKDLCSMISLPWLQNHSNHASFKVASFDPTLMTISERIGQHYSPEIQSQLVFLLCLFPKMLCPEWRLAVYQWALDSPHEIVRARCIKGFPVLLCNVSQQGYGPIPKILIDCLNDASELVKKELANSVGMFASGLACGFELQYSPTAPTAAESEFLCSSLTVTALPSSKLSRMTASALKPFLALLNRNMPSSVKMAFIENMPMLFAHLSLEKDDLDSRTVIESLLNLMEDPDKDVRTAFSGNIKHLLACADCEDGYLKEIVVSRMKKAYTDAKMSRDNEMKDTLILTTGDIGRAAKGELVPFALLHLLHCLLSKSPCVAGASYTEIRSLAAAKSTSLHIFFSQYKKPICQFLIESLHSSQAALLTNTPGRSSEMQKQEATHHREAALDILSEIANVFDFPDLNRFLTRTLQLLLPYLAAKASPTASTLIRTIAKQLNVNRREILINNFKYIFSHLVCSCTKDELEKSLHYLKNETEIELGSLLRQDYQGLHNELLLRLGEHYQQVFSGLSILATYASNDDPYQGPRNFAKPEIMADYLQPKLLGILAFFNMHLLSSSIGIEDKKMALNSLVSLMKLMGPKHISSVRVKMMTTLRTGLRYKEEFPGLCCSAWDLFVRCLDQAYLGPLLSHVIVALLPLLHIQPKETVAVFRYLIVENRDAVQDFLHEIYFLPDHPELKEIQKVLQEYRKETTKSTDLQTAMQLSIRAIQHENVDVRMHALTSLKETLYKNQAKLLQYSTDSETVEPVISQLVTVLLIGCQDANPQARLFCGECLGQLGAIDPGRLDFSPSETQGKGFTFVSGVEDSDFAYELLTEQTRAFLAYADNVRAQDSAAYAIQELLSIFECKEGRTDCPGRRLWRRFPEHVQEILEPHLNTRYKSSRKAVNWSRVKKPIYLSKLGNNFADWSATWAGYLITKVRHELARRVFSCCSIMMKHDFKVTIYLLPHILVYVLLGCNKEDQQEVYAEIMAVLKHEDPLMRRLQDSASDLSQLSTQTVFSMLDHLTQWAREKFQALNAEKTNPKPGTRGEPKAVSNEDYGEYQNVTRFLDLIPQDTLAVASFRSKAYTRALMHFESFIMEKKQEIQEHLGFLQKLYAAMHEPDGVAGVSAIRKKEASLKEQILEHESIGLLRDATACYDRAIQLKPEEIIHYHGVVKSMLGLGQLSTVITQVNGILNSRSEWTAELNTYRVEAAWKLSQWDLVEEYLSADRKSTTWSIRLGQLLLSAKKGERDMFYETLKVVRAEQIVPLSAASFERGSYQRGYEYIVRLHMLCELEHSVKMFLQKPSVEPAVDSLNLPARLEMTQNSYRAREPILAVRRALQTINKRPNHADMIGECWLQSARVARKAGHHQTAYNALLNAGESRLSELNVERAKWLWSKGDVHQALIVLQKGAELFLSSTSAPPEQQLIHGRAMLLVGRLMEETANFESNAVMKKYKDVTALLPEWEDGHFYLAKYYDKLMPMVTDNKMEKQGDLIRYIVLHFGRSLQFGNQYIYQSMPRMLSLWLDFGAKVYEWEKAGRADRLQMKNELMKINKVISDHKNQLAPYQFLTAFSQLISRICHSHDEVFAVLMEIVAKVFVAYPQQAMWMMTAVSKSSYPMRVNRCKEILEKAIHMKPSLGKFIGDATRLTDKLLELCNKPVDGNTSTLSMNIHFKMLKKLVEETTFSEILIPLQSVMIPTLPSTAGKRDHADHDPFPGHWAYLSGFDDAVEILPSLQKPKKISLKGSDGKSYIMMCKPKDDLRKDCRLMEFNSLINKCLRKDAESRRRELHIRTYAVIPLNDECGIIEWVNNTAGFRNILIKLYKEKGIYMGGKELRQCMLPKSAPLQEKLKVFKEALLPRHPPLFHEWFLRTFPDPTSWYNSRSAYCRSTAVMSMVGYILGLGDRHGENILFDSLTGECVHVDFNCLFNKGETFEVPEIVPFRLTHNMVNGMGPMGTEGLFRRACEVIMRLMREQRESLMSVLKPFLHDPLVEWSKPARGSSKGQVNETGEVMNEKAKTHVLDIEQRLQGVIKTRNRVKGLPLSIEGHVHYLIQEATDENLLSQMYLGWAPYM", "test": "Kinase assay of Xatr-Xatrip complexes isolated from Xenopus egg extracts", "format": "biochemical", "parameters": "increase of kinase activity of Xatr; other: Xatr immunoprecipitated from Xatrip-depleted extracts", "from_the_text": "(§1) Specifically, Applicants first isolated Xatr from egg extracts by pull-downs with FLAG-tagged Xenopus ATRIP (Xatrip). For these experiments, Applicants used both full-length Xatrip and an N-terminal truncation mutant (ΔN222) that supports normal Xatr-dependent activation of Xchk1 in egg extracts (Kumagai et al., 2004; Kim et al., 2005).\n(§2) Applicants eluted the beads with FLAG peptide and mixed the eluates with a His6-tagged version of XtopBP1 that had been purified from baculovirus-infected insect cells (FIG. 1B). Finally, Applicants added ^32P-ATP and PHAS-I, a commonly used model substrate for ATR (Abraham, 2001).\nXatrip-FLAG and XatripΔN222-FLAG (20 ng/μl each) were incubated in interphase extracts containing anti-FLAG M2 antibody beads (Sigma) for 60 min at room temperature. The beads were isolated and washed twice with buffer A (10 mM HEPES-KOH (pH 7.5), 150 mM NaCl, 0.1% CHAPS, and 2.5 mM EGTA) and twice with HEPES-buffered saline (HBS; 10 mM HEPES-KOH (pH 7.5) and 150 mM NaCl). Xatr-Xatrip complexes were eluted in one-tenth the volume of the egg extract in HBS containing 0.1 mg/ml 3×-FLAG peptide (Sigma) for 60 min at 4° C. Eluates (2 μl) were used for kinase assays as described below. […]"}, "Xatr-Xatrip [2]": {"test_system": "Xatr-Xatrip", "sequence (Q9DE14 whole entry, the tested form may be a part)": "as above", "test": "Kinase assay of Xatr-Xatrip complexes isolated from Xenopus egg extracts", "format": "biochemical", "settings": "for activation of Xatr kinase activity toward PHAS-I: isolated Xatr-Xatrip complexes, 32P-ATP, result in words", "from_the_text": "as §1, §2\nXatrip-FLAG and XatripΔN222-FLAG (20 ng/μl each) were incubated in interphase extracts containing anti-FLAG M2 antibody beads (Sigma) for 60 min at room temperature. The beads were isolated and washed twice with buffer A (10 mM HEPES-KOH (pH 7.5), 150 mM NaCl, 0.1% CHAPS, and 2.5 mM EGTA) and twice with HEPES-buffered saline (HBS; 10 mM HEPES-KOH (pH 7.5) and 150 mM NaCl). Xatr-Xatrip complexes were eluted in one-tenth the volume of the egg extract in HBS containing 0.1 mg/ml 3×-FLAG peptide (Sigma) for 60 min at 4° C. Eluates (2 μl) were used for kinase assays as described below.\n(§3) Samples were incubated in 20 μl kinase buffer (50 mM Tris-HCl (pH 7.5), 10 mM MgCl2, 1 mM dithiothreitol, 100 μM nonradioactive ATP, and 100 μCi/ml [γ-^32P]ATP) containing 12.5 μg/ml PHAS-I or 50 μg/ml GST-Xmcm2 (62-122) for 30 min at room temperature. GST-XtopBP1 (972-1279) was added at a final concentration of 100 μg/ml unless indicated otherwise. In some cases, GST-Xmcm2 (62-122), GST-Xchk1 (306-352), or full-length Xchk1-Myc-His6 were used as substrates with only […] nonradioactive ATP. Reactions were terminated by boiling in gel sample buffer."}, "Xchk1 [3]": {"test_system": "Xchk1", "test": "Checkpoint-dependent phosphorylation of Xchk1 in XtopBP1-depleted egg extracts with aphidicolin and sperm nuclei", "format": "biochemical, Xenopus", "settings": "added back to XtopBP1-depleted extract, aphidicolin", "from_the_text": "Applicants proceeded to remove endogenous XtopBP1 from egg extracts by immunodepletion with anti-XtopBP1 antibodies (FIG. 7C). In parallel, Applicants used control antibodies to prepare mock-depleted extract. Next, Applicants added back wild-type His6-XtopBP1 or the His6-XtopBP1-W1138R mutant to aliquots of the XtopBP1-depleted extract. Finally, Applicants added aphidicolin and demembranated Xenopus sperm nuclei to the various extracts in order to create stalled replication forks and then examined phosphorylation of Xchk1 (FIG. 7D).\n(§4) Extracts from Xenopus eggs were prepared as described (Kumagai and Dunphy, 2000). A DNA replication checkpoint response was induced by addition of 50 μg/ml aphidicolin into extracts containing demembranated sperm nuclei (3000 per μl) (Kumagai and Dunphy, 2000). To monitor DNA replication, extracts containing 1000 sperm nuclei/μl were incubated with [α-^32P]dATP (Yoo et al., 2004).\nXatr and Xatrip were immunodepleted as described (Kumagai et al., 2004). For immunodepletion of XtopBP1, we incubated 100 μl egg extract twice for 60 min with 10 μl Affiprep protein A beads (BioRad) containing 35 μg anti-XtopBP1 antibodies."}, "human Mcm2 on S108": {"test_system": "human Mcm2 on S108", "test": "Phosphorylation of Mcm2 on S108 in transfected human 293T cells", "format": "cell-based", "settings": "immunoblotting", "from_the_text": "To pursue this issue further, Applicants asked whether the ATR-activating domain of TopBP1 could induce ATR-dependent phosphorylation in human cells. For this purpose, Applicants constructed a version of the enhanced green fluorescent protein (EGFP) containing the SV40 nuclear localization sequence and residues 978-1286 of human TopBP1 (equivalent to residues 972-1279 of XtopBP1). Applicants also produced the W1145R mutant of this plasmid (analogous to the W1138R mutant of XtopBP1). Applicants transfected plasmids encoding these proteins into human 293T cells and performed immunoblotting with anti-phosphopeptide antibodies that detect phosphorylation of human Mcm2 on S108 (which corresponds to S92 of Xmcm2) (Cortez et al., 2004; Yoo et al., 2004).\npEGFP-NLS-TopBP1 (978-1286), which encodes EGFP followed by a nuclear localization sequence (KKKRKV, SEQ ID NO: 11) and amino acids 978-1286 of human TopBP1, was prepared from pEGFP (Clontech) by standard polymerase chain reaction-based methods. Plasmids were transfected into 293T cells with Lipofectamine 2000 (Invitrogen)."}, "human ATR [4]": {"biological_target": "T1, human ATR (Homo sapiens, UniProt Q13535)", "T1 construct": "expressed in transfected cells; host or cells: U2OS GW33 cells (doxycycline-inducible), nuclear extract, anti-FLAG purification", "test": "Kinase assay of recombinant human FLAG-ATR against S92 of GST-Xmcm2 (62-122)", "format": "biochemical", "settings": "wild-type human FLAG-ATR from U2OS nuclear extracts", "protocol": "(§5) Specifically, Applicants isolated wild-type and kinase-deficient versions of FLAG-tagged human ATR from nuclear extracts of U2OS cells that conditionally express these proteins (FIG. 5C). The recombinant ATR proteins were purified with anti-FLAG magnetic beads under conditions that preserve the binding of endogenous ATRIP (Ünsal-Kacmaz and Sancar, 2004). Next, Applicants incubated both the wild-type and kinase-deficient FLAG-ATR preparations in the absence or presence of GST-XtopBP1 (972-1279), and measured kinase activity against S92 of the GST-Xmcm2 (62-122) peptide.\nas §3\n(§6) U2OS cells conditionally expressing wild-type (GW33) or kinase-deficient (GK41) human FLAG-ATR were cultured as described (Nghiem et al., 2001). Cells were induced with 1 μg/ml doxycycline for 48 hr. Nuclear extracts were prepared as described (Dignam et al., 1983) except that nuclei were lysed by brief sonication and the concentration of NaCl in the nuclear isolation buffer was reduced to 350 mM in order to preserve the binding of endogenous ATRIP to recombinant ATR. FLAG-ATR proteins were isolated by an overnight incubation with anti-FLAG antibodies bound to protein G-magnetic beads (Dynal) and eluted with 3×-FLAG peptide."}, "human ATR [5]": {"test_system": "human ATR", "test": "Kinase assay of recombinant human FLAG-ATR against S92 of GST-Xmcm2 (62-122)", "format": "biochemical", "settings": "kinase-deficient human FLAG-ATR", "protocol": "as §5, §3, §6"}, "Xchk1 [6]": {"test_system": "Xchk1", "test": "Ectopic phosphorylation of 35S-Xchk1 in Xenopus egg extracts without checkpoint-inducing DNA", "format": "biochemical", "settings": "35S-Xchk1, tautomycin, no checkpoint-inducing DNA template", "protocol": "Because the GST-XtopBP1 (972-1279) fragment could activate Xatr in vitro without the inclusion of DNA, Applicants reasoned that ectopic addition of this fragment to Xenopus egg extracts might also be able to trigger the Xatr-dependent phosphorylation of Xchk1 even in the absence of a checkpoint-inducing DNA template.\nas §4"}, "Xatr-Xatrip [7]": {"test_system": "Xatr-Xatrip", "test": "Glutathione bead pull-down of Xatr and Xatrip from egg extracts", "format": "binding, Xenopus", "settings": "egg extracts, immunoblotting", "protocol": "Specifically, Applicants incubated glutathione beads containing GST-XtopBP1 (972-1279) in egg extracts, reisolated the beads, and performed immunoblotting for both Xatr and Xatrip. […] In addition, in other experiments, there was no binding of Xatr or Xatrip to beads containing GST fusions of the 1-348, 333-646, or 623-984 segments from XtopBP1 (data not shown).\nApplicants also tested to see if the association of XtopBP1 with Xatr depends upon Xatrip. For this experiment, Applicants removed endogenous Xatrip from egg extracts by immunodepletion with anti-Xatrip antibodies. As described previously, this procedure leaves behind approximately 30% of the endogenous Xatr, the fraction that is not in a complex with Xatrip (Kumagai et al., 2004). Next, Applicants added GST-XtopBP1 (972-1279) to the Xatrip-depleted extracts and to mock-depleted extracts that had been prepared in parallel."}}}
{"molecule": "Cn1c(=O)c2c(ncn2C)n(C)c1=O", "note": "[caffeine, reference compound]", "values": [{"measurement": "IC50", "setting": "Xatr-Xatrip [1]; Xatr-XatripΔN222 activated by His6-XtopBP1, PHAS-I substrate, 0.04-5 mM caffeine, read-out: half-maximal inhibition of the XtopBP1-activated form of Xatr", "value": "~400", "unit": "µM"}]}
{"molecule": "XtopBP1: His6-tagged full-length Xenopus TopBP1 purified from baculovirus-infected insect cells", "values": [{"measurement": "half-maximal induction of kinase activity", "setting": "Xatr-Xatrip [2]; Xatr-XatripΔN222, PHAS-I substrate, dose-response 0.5-30 μg/ml XtopBP1", "value": "10 to 15", "unit": "µg/mL"}, {"measurement": "induced kinase activity toward PHAS-I", "setting": "Xatr-Xatrip [2]; XatripΔN222-FLAG preparation from Xatr-depleted extracts", "value": "could not elicit any kinase activity"}, {"measurement": "induced kinase activity toward PHAS-I", "setting": "Xatr-Xatrip [2]; XatripΔN222-FLAG preparation from mock-depleted extracts", "value": "induced strong kinase activity"}, {"measurement": "activation of Xatr kinase activity toward PHAS-I", "setting": "Xatr-Xatrip [2]", "value": "very large increase"}, {"measurement": "kinase activity toward PHAS-I of the preparation alone", "setting": "Xatr-Xatrip [2]; recombinant XtopBP1 without Xatr-Xatrip", "value": "negligible kinase activity"}, {"measurement": "rescue of phosphorylation of Xchk1", "setting": "Xchk1 [3]", "value": "rescue the phosphorylation of Xchk1 fully"}, {"measurement": "increase of kinase activity of Xatr", "setting": "Xatr-Xatrip [1]; Xatr immunoprecipitated from Xatrip-depleted extracts", "value": "could not significantly increase"}]}
{"molecule": "B1", "values": [{"measurement": "phosphorylation of Mcm2 on S108", "setting": "human Mcm2 on S108", "value": "no effect"}]}
{"molecule": "B2", "values": [{"measurement": "kinase activity of wild-type FLAG-ATR", "setting": "human ATR [4]", "value": "did not induce any activation"}, {"measurement": "activity of kinase-deficient FLAG-ATR", "setting": "human ATR [5]", "value": "neither the intact nor W1138R mutant form of GST-XtopBP1 (972-1279) had any effect"}, {"measurement": "activation of Xatr kinase activity toward PHAS-I", "setting": "Xatr-Xatrip [2]", "value": "totally lost its capacity"}, {"measurement": "phosphorylation of Xchk1 in egg extracts", "setting": "Xchk1 [6]", "value": "none of the ΔRQLQ, ΔWDDP, or W1138R mutants of the 972-1279 fragment could induce ectopic activation"}, {"measurement": "binding of Xatr and Xatrip to glutathione beads", "setting": "Xatr-Xatrip [7]", "value": "retains significant ability to bind Xatr-Xatrip"}]}
